According to US20200317768A1 (published 2020):

biological target: T1, human FcγRIIb extracellular domain, His-tagged (human, UniProt P31994 43-217); test: SPR (BIACORE), captured antibody, FcgR as analyte
T1 construct: also called FcgRIIb (human); not shown: C-terminal His-tag
T1 sequence: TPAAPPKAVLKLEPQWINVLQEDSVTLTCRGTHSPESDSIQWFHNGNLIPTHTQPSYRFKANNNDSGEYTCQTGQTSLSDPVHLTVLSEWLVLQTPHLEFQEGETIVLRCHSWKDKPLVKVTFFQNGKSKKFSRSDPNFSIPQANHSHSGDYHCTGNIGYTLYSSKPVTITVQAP

Row | Binder | Kd [µM]
1 | MS_M103205H795-SG1/M103202L889-SK1 (antibody, human IgG1, kappa, Parent antibody with heavy chain constant region SG1; also called MS1032LO06-SG1; copies: 2 + 2) heavy: not shown light: DIVMTQSPATLSLSPGERATLSCTSSQSVYHANWLSWFQQKPGQPPKLLIYWASTLAYGVPSRFSGSGSGTDFTLTISSLQPEDAATYYCAGGYGGGRYAFGQGTKVEIKRTVAAPSVFIFPPSDEQLKSGTASVVCLLNNFYPREAKVQWKVDNALQSGNSQESVTEQDSKDSTYSLSSTLTLSKADYEKHKVYACEVTHQGLSSPVTKSFNRGEC | 4.6
2 | M103205H795-MY444/M103202L889-SK1 (antibody, human IgG1, kappa, copies: 2 + 2) heavy: QVTLKESGPVLVKPTETLTLTCTVSGIDLSHDDISWVRQAPGKGLEWVGIISYAGSTYYASWAKGRLTISKDTSKNQVVLTMTNMDPVDTATYYCARGVPAYSHGGDLWGQGTLVTVSSASTKGPSVFPLAPSSKSTSGGTAALGCLVKDYFPEPVTVSWNSGALTSGVHTFPAVLQSSGLYSLSSVVTVPSSSLGTQTYICNVNHKPSNTKVDKKVEPKSCDKTHTCPPCPAFELLTGPSVFLFPPKPKDTLMISRTPEVTCVVVDVSDEDPEVKFNWYVDGVEVHNAKTKPREEQYNSTYRVVSVLTVLHQDWLNGKEYKCKVSNKALPKPIEKTISKAKGQPREPQVYTLPPSREEMTKNQVSLTCLVKGFYPSDIAVEWESNGQPENNYKTTPPVLDSDGSFFLYSKLTVDKSRWQQGNVFSCSVMHEALHNHYTQKSLSLSP light: DIVMTQSPATLSLSPGERATLSCTSSQSVYHANWLSWFQQKPGQPPKLLIYWASTLAYGVPSRFSGSGSGTDFTLTISSLQPEDAATYYCAGGYGGGRYAFGQGTKVEIKRTVAAPSVFIFPPSDEQLKSGTASVVCLLNNFYPREAKVQWKVDNALQSGNSQESVTEQDSKDSTYSLSSTLTLSKADYEKHKVYACEVTHQGLSSPVTKSFNRGEC | 0.74
3 | M103205H795-MY442/M103202L889-SK1 (antibody, human IgG1, kappa, copies: 2 + 2) heavy: QVTLKESGPVLVKPTETLTLTCTVSGIDLSHDDISWVRQAPGKGLEWVGIISYAGSTYYASWAKGRLTISKDTSKNQVVLTMTNMDPVDTATYYCARGVPAYSHGGDLWGQGTLVTVSSASTKGPSVFPLAPSSKSTSGGTAALGCLVKDYFPEPVTVSWNSGALTSGVHTFPAVLQSSGLYSLSSVVTVPSSSLGTQTYICNVNHKPSNTKVDKKVEPKSCDKTHTCPPCPADELLTGPSVFLFPPKPKDTLMISRTPEVTCVVVDVSDEDPEVKFNWYVDGVEVHNAKTKPREEQYNSTYRVVSVLTVLHQDWLNGKEYKCKVSNKALPKPIEKTISKAKGQPREPQVYTLPPSREEMTKNQVSLTCLVKGFYPSDIAVEWESNGQPENNYKTTPPVLDSDGSFFLYSKLTVDKSRWQQGNVFSCSVMHEALHNHYTQKSLSLSP light: DIVMTQSPATLSLSPGERATLSCTSSQSVYHANWLSWFQQKPGQPPKLLIYWASTLAYGVPSRFSGSGSGTDFTLTISSLQPEDAATYYCAGGYGGGRYAFGQGTKVEIKRTVAAPSVFIFPPSDEQLKSGTASVVCLLNNFYPREAKVQWKVDNALQSGNSQESVTEQDSKDSTYSLSSTLTLSKADYEKHKVYACEVTHQGLSSPVTKSFNRGEC | 1.8
4 | M103205H795-MY447/M103202L889-SK1 (antibody, human IgG1, kappa, copies: 2 + 2) heavy: QVTLKESGPVLVKPTETLTLTCTVSGIDLSHDDISWVRQAPGKGLEWVGIISYAGSTYYASWAKGRLTISKDTSKNQVVLTMTNMDPVDTATYYCARGVPAYSHGGDLWGQGTLVTVSSASTKGPSVFPLAPSSKSTSGGTAALGCLVKDYFPEPVTVSWNSGALTSGVHTFPAVLQSSGLYSLSSVVTVPSSSLGTQTYICNVNHKPSNTKVDKKVEPKSCDKTHTCPPCPAIELLTGPSVFLFPPKPKDTLMISRTPEVTCVVVDVSDEDPEVKFNWYVDGVEVHNAKTKPREEQYNSTYRVVSVLTVLHQDWLNGKEYKCKVSNKALPKPIEKTISKAKGQPREPQVYTLPPSREEMTKNQVSLTCLVKGFYPSDIAVEWESNGQPENNYKTTPPVLDSDGSFFLYSKLTVDKSRWQQGNVFSCSVMHEALHNHYTQKSLSLSP light: DIVMTQSPATLSLSPGERATLSCTSSQSVYHANWLSWFQQKPGQPPKLLIYWASTLAYGVPSRFSGSGSGTDFTLTISSLQPEDAATYYCAGGYGGGRYAFGQGTKVEIKRTVAAPSVFIFPPSDEQLKSGTASVVCLLNNFYPREAKVQWKVDNALQSGNSQESVTEQDSKDSTYSLSSTLTLSKADYEKHKVYACEVTHQGLSSPVTKSFNRGEC | 0.44
5 | M103205H795-MY446/M103202L889-SK1 (antibody, human IgG1, kappa, copies: 2 + 2) heavy: QVTLKESGPVLVKPTETLTLTCTVSGIDLSHDDISWVRQAPGKGLEWVGIISYAGSTYYASWAKGRLTISKDTSKNQVVLTMTNMDPVDTATYYCARGVPAYSHGGDLWGQGTLVTVSSASTKGPSVFPLAPSSKSTSGGTAALGCLVKDYFPEPVTVSWNSGALTSGVHTFPAVLQSSGLYSLSSVVTVPSSSLGTQTYICNVNHKPSNTKVDKKVEPKSCDKTHTCPPCPAHELLTGPSVFLFPPKPKDTLMISRTPEVTCVVVDVSDEDPEVKFNWYVDGVEVHNAKTKPREEQYNSTYRVVSVLTVLHQDWLNGKEYKCKVSNKALPKPIEKTISKAKGQPREPQVYTLPPSREEMTKNQVSLTCLVKGFYPSDIAVEWESNGQPENNYKTTPPVLDSDGSFFLYSKLTVDKSRWQQGNVFSCSVMHEALHNHYTQKSLSLSP light: DIVMTQSPATLSLSPGERATLSCTSSQSVYHANWLSWFQQKPGQPPKLLIYWASTLAYGVPSRFSGSGSGTDFTLTISSLQPEDAATYYCAGGYGGGRYAFGQGTKVEIKRTVAAPSVFIFPPSDEQLKSGTASVVCLLNNFYPREAKVQWKVDNALQSGNSQESVTEQDSKDSTYSLSSTLTLSKADYEKHKVYACEVTHQGLSSPVTKSFNRGEC | 2.4
6 | M103205H795-MY265/M103202L889-SK1 (antibody, human IgG1, kappa, also called MS103205H795-MY265; copies: 2 + 2) heavy: QVTLKESGPVLVKPTETLTLTCTVSGIDLSHDDISWVRQAPGKGLEWVGIISYAGSTYYASWAKGRLTISKDTSKNQVVLTMTNMDPVDTATYYCARGVPAYSHGGDLWGQGTLVTVSSASTKGPSVFPLAPSSKSTSGGTAALGCLVKDYFPEPVTVSWNSGALTSGVHTFPAVLQSSGLYSLSSVVTVPSSSLGTQTYICNVNHKPSNTKVDKKVEPKSCDKTHTCPPCPAPELLTGPSVFLFPPKPKDTLMISRTPEVTCVVVDVSDEDPEVKFNWYVDGVEVHNAKTKPREEQYNSTYRVVSVLTVLHQDWLNGKEYKCKVSNKALPKPIEKTISKAKGQPREPQVYTLPPSREEMTKNQVSLTCLVKGFYPSDIAVEWESNGQPENNYKTTPPVLDSDGSFFLYSKLTVDKSRWQQGNVFSCSVMHEALHNHYTQKSLSLSP light: DIVMTQSPATLSLSPGERATLSCTSSQSVYHANWLSWFQQKPGQPPKLLIYWASTLAYGVPSRFSGSGSGTDFTLTISSLQPEDAATYYCAGGYGGGRYAFGQGTKVEIKRTVAAPSVFIFPPSDEQLKSGTASVVCLLNNFYPREAKVQWKVDNALQSGNSQESVTEQDSKDSTYSLSSTLTLSKADYEKHKVYACEVTHQGLSSPVTKSFNRGEC | 2.2
7 | M103205H795-MY443/M103202L889-SK1 (antibody, human IgG1, kappa, copies: 2 + 2) heavy: QVTLKESGPVLVKPTETLTLTCTVSGIDLSHDDISWVRQAPGKGLEWVGIISYAGSTYYASWAKGRLTISKDTSKNQVVLTMTNMDPVDTATYYCARGVPAYSHGGDLWGQGTLVTVSSASTKGPSVFPLAPSSKSTSGGTAALGCLVKDYFPEPVTVSWNSGALTSGVHTFPAVLQSSGLYSLSSVVTVPSSSLGTQTYICNVNHKPSNTKVDKKVEPKSCDKTHTCPPCPAEELLTGPSVFLFPPKPKDTLMISRTPEVTCVVVDVSDEDPEVKFNWYVDGVEVHNAKTKPREEQYNSTYRVVSVLTVLHQDWLNGKEYKCKVSNKALPKPIEKTISKAKGQPREPQVYTLPPSREEMTKNQVSLTCLVKGFYPSDIAVEWESNGQPENNYKTTPPVLDSDGSFFLYSKLTVDKSRWQQGNVFSCSVMHEALHNHYTQKSLSLSP light: DIVMTQSPATLSLSPGERATLSCTSSQSVYHANWLSWFQQKPGQPPKLLIYWASTLAYGVPSRFSGSGSGTDFTLTISSLQPEDAATYYCAGGYGGGRYAFGQGTKVEIKRTVAAPSVFIFPPSDEQLKSGTASVVCLLNNFYPREAKVQWKVDNALQSGNSQESVTEQDSKDSTYSLSSTLTLSKADYEKHKVYACEVTHQGLSSPVTKSFNRGEC | 2.8
8 | M103205H795-MY445/M103202L889-SK1 (antibody, human IgG1, kappa, copies: 2 + 2) heavy: QVTLKESGPVLVKPTETLTLTCTVSGIDLSHDDISWVRQAPGKGLEWVGIISYAGSTYYASWAKGRLTISKDTSKNQVVLTMTNMDPVDTATYYCARGVPAYSHGGDLWGQGTLVTVSSASTKGPSVFPLAPSSKSTSGGTAALGCLVKDYFPEPVTVSWNSGALTSGVHTFPAVLQSSGLYSLSSVVTVPSSSLGTQTYICNVNHKPSNTKVDKKVEPKSCDKTHTCPPCPAGELLTGPSVFLFPPKPKDTLMISRTPEVTCVVVDVSDEDPEVKFNWYVDGVEVHNAKTKPREEQYNSTYRVVSVLTVLHQDWLNGKEYKCKVSNKALPKPIEKTISKAKGQPREPQVYTLPPSREEMTKNQVSLTCLVKGFYPSDIAVEWESNGQPENNYKTTPPVLDSDGSFFLYSKLTVDKSRWQQGNVFSCSVMHEALHNHYTQKSLSLSP light: DIVMTQSPATLSLSPGERATLSCTSSQSVYHANWLSWFQQKPGQPPKLLIYWASTLAYGVPSRFSGSGSGTDFTLTISSLQPEDAATYYCAGGYGGGRYAFGQGTKVEIKRTVAAPSVFIFPPSDEQLKSGTASVVCLLNNFYPREAKVQWKVDNALQSGNSQESVTEQDSKDSTYSLSSTLTLSKADYEKHKVYACEVTHQGLSSPVTKSFNRGEC | 4.2
9 | M103205H795-MY441/M103202L889-SK1 (antibody, human IgG1, kappa, copies: 2 + 2) heavy: QVTLKESGPVLVKPTETLTLTCTVSGIDLSHDDISWVRQAPGKGLEWVGIISYAGSTYYASWAKGRLTISKDTSKNQVVLTMTNMDPVDTATYYCARGVPAYSHGGDLWGQGTLVTVSSASTKGPSVFPLAPSSKSTSGGTAALGCLVKDYFPEPVTVSWNSGALTSGVHTFPAVLQSSGLYSLSSVVTVPSSSLGTQTYICNVNHKPSNTKVDKKVEPKSCDKTHTCPPCPAAELLTGPSVFLFPPKPKDTLMISRTPEVTCVVVDVSDEDPEVKFNWYVDGVEVHNAKTKPREEQYNSTYRVVSVLTVLHQDWLNGKEYKCKVSNKALPKPIEKTISKAKGQPREPQVYTLPPSREEMTKNQVSLTCLVKGFYPSDIAVEWESNGQPENNYKTTPPVLDSDGSFFLYSKLTVDKSRWQQGNVFSCSVMHEALHNHYTQKSLSLSP light: DIVMTQSPATLSLSPGERATLSCTSSQSVYHANWLSWFQQKPGQPPKLLIYWASTLAYGVPSRFSGSGSGTDFTLTISSLQPEDAATYYCAGGYGGGRYAFGQGTKVEIKRTVAAPSVFIFPPSDEQLKSGTASVVCLLNNFYPREAKVQWKVDNALQSGNSQESVTEQDSKDSTYSLSSTLTLSKADYEKHKVYACEVTHQGLSSPVTKSFNRGEC | 2.8
